Assay results from patent publication US20230348555A1 (H LEE MOFFITT CANCER CENTER AND RESEARCH INSTITUTE, published 2023).
Each block holds one binder with its values, some of them ahead of it.

How the values were obtained:
[1] = molecular target: T1, CD33/Siglec 3 chimeric fusion protein (ectodomain of CD33 fused to the Fc portion of human IgG1, with a … (Homo sapiens; human, UniProt P20138 18-259); assay: immunoprecipitation of BM cell lysates from MDS patients with CD33-fusion, then mass spectrometry (FIG. 3A)
T1 construct: extracellular domain; also called CD33-fusion; CD33-IgG; not shown: Fc region of human IgG1 (human Fc gamma) from the expression vector; C-terminal recognition site for E. coli biotin ligase
Text: Therefore, to identify potential ligand(s) for this receptor, a chimeric fusion protein with the ectodomain of CD33 and the Fe portion of human IgG (here on referred to as CD33-fusion) was produced. BM cell lysates from MDS patients were immunoprecipitated with the CD33-fusion followed by high throughput mass-spectrometric analysis on associated peptides. S100A9, an inflammatory signaling molecule known to activate MDSC, was among the most prominent protein bands identified (FIG. 3A). To confirm the specificity of the binding of this DAMP to CD33 both S100A8 and S100A9 transfectants were prepared in the rhabdomyosarcoma cell line SJCRH30, which lacks detectable expression of endogenous CD33, S100A8 or S100A9. […] To validate clinically the ligand specificity in MDS patients, the pull-down was compared with CD33-fusion from healthy PBMC and BM as well as MDS patients. As expected, the highest amount of S100A9 was precipitated from the BM of MDS patient specimens (FIG. 3F). Next, to understand the kinetics of S100A9 and CD33 interactions, SJCRH30 cells were transfected with either vector or CD33 and incubated with recombinant human (rh) S100A9 tagged with DDK ([…] epitope, same epitope as Flag).

[2] = molecular target: T2, CD33 (Siglec 3) expressed in cells (human, UniProt P20138 18-364); assay: reverse immunoprecipitation: S100A9 IP from CD33/S100A9 co-transfected SJCRH30 lysate, blotted for CD33 (FIG. 3E)
T2 construct: whole, on cells; In the co-immunoprecipitations it stood in cell lysates; also called SJCRH30-CD33 cells; CD33 on MDS-MDSC

[3] = molecular target: T1, CD33/Siglec 3 chimeric fusion protein …; assay: immunofluorescence staining of transfected SJCRH30 cells with CD33-fusion and anti-human IgG1-APC (FIG. 3B)
Procedure: Immunofluorescence was detected using a Zeiss automated upright fluorescence microscope and images captured by a Nikon camera with the Capture Program AxioVision. Detailed methods for immuno-staining on S100A9 transfected SJCRH30 cells have been published previously (Chen, X., et al. 2008. Blood 113(14):3226-34). Specifically, SJCRH30 cells, which lack detectable expression levels of both CD33 and S100A9, were transfected with either S100A9 or S100A8 (negative control) for 48-72 hours. After incubation with CD33-fusion for 30 min (2 μg/ml), 1×10⁴ cells were cytospinned onto slides and then stained with a secondary anti-human IgG1-APC before analysis by immunofluorescence microscopy. Similarly, SJCRH30 cells, stable-transfected with CD33, were incubated with rhS100A9 tagged with DDK for various time points and stained by the same methodology before analysis.
S100A9 is a native ligand for CD33. […] Therefore, to identify potential ligand(s) for this receptor, a chimeric fusion protein with the ectodomain of CD33 and the Fe portion of human IgG (here on referred to as CD33-fusion) was produced. BM cell lysates from MDS patients were immunoprecipitated with the CD33-fusion followed by high throughput mass-spectrometric analysis on associated peptides. S100A9, an inflammatory signaling molecule known to activate MDSC, was among the most prominent protein bands identified (FIG. 3A). […]

- binding result [1]: binds
- binding result [2]: binds
B1: S100A9 (ligand, human, UniProt P06702 1-114, looked up)
chain: MTCKMSQLERNIETIINTFHQYSVKLGHPDTLNQGEFKELVRKDLQNFLKKENKNEKVIEHIMEDLDTNADKQLSFEEFIMLMARLTWASHEKMHEGDEGPGHHHKPGLGEGTP
notes: One entry covers both the endogenous protein of human specimens and the protein expressed from transfected cDNA; also called MRP-14; calgranulin-B

B2: S100A8 (ligand, UniProt P05109 1-93, looked up)
chain: MLTELEKALNSIIDVYHKYSLIKGNFHAVYRDDLKKLLETECPQYIRKKGADVWFKELDINTDGAVNFQEFLILVIKMGVAAHKKSHEESHKE
notes: also called MRP-8; calgranulin A
- binding result [3]: no binding (tested: 2 µg/ml CD33-fusion for 30 min)
